Test results: the supplement of paper PMC10567573

B1: GAGE1 (parent)
chain: QPPEMIGPMRPEQFSDEVEPATPE
B2: SPRY1 (parent)
chain: WIHRPGCRCKNSNTVYCKLESCPS

Variants of: B1
Assay: protein stability index of a GFP-peptide fusion (GPS, HEK-293T) (PSI 1-6); higher = more stable
Settings: c terminus: a fixed tail appended
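Note: lentivirally expressed fusions sorted by FACS into six bins by GFP to DsRed ratio, PSI derived from sequencing read proportions per bin multiplied by bin number.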

Protein stability index, by site and new letter:
P3: F 5.22, C 5.44, E 5.63, A 5.73, D 5.75
Q1: F 4.95, T 4.94, M 5.27, Y 4.8, R 5.04, V 4.68, I 4.78, K 4.57, N 5.06, L 5.07, S 4.89, A 4.84, H 5.06, W 5.49, E 5.01, G 4.64, C 5.33, D 5.42
P2: H 5.25, A 4.8, M 4.59, W 4.48, E 4.88, C 5.32, L 4.88, T 5.09, I 4.28, R 4.8, K 4.99, D 4.87, S 4.65, F 5.11, G 5.6, Y 4.8, N 5.34, Q 4.64, V 4.4

Variants of: B2
Assay: as above
Settings: c terminus: a fixed tail appended

Protein stability index, by site and new letter:
N13: M 2.74, T 2.4, L 2.31, G 2.23, F 2.3, W 2.81, R 1.88, D 3.17, S 2.06, I 1.67, Q 2.26, A 1.92, P 2.36, C 2.1, K 1.17, V 2.04, H 1.91, E 2.64, Y 2.73
V15: W 2.92, K 2.18, Q 2.65, E 2.49, D 3.14, M 1.74, N 2.68, Y 1.6, S 2.35, G 2.69, T 3.03, R 2.67, H 2.06, C 2.42, L 2.34, I 2.14, P 3.11, F 2.37, A 2.41
P23: V 1.47, K 2.15, T 1.83, S 2.9, M 1.56, E 2.03, D 3.04, C 2.43, A 2.29, F 3.63, H 2.23, G 2.84, W 2.35, Y 1.99, I 1.32, R 1.93, Q 2.41, N 2.43, L 1.71
S12: D 2.16, I 2.4, H 1.4, F 2.1, P 1.65, E 2.71, V 2.2, W 1.73, R 2.03, A 3.15, L 3.01, Q 2.14, Y 1.97, T 2.28, M 2.33, K 2.32, G 3.79, N 2.12, C 3.25
C9: G 1.73, N 1.97, Q 2, T 1.49, W 2.04, R 1.45, D 2.07, K 1.84, A 2.19, S 3.7, P 2.4, V 3.41, L 2.69, I 1.17, H 1.85
L19: M 2.37, T 2.44, H 1.89, F 2.06, C 3.1, Y 2.49, Q 2.59, N 3.33, R 2.73, I 1.76, A 3, W 2.16, G 2.68, V 2, D 3.51, K 2.46, P 2.01
K10: N 2.75, S 2.26, H 2.77, T 3.11, V 2, F 1.74, M 1.63, W 2.41, A 2.33, D 3.1, P 2.73, Y 1.82, I 2.88, C 1.88, R 2.21, L 1.96, Q 2.81, G 2.75, E 2.73
S24: P 2.16, I 2.29, L 2, R 1.61, N 2.1, K 2.05, E 2.52, G 2.1, Y 3.13, M 2.37, C 2.5, Q 2.13, T 2.1, A 2.25, F 2.09, D 3.1, H 2.63, W 3.62, V 2.5
K18: M 2.46, T 2.55, P 2.03, R 2.09, N 2.66, L 1.8, I 1.68, V 1.7, F 1.74, Q 2.25, H 2.1, A 1.91, Y 1.73, D 3.3, G 2.58, C 2.72, W 1.63, S 2.28
T14: S 2.59, E 2.84, L 2.08, F 1.9, V 1.86, C 2.56, Y 1.84, Q 2.87, K 1.92, W 1.85, H 1.99, G 2.8, D 3.07, R 1.54, N 2.78, I 2.6, M 1.97, A 2.89, P 1.79
N11: P 2.27, I 1.86, R 4.1, V 3.49, F 2.42, S 2.7, T 2.1, E 2.62, W 2.6, M 2.66, Q 2.41, L 2.51, G 2.15, Y 2.07, C 1.83, K 2.19, D 2.88, H 2.52, A 3.47
S21: I 2.67, G 2.22, T 2.17, P 2.74, E 2.4, H 2, D 2.13, Y 2.04, L 1.7, M 1.99, R 2.17, K 1.79, F 2.56, A 2.13, N 2.63, C 1.8, W 2.75, Q 2.14, V 2.09
C22: F 1.8, R 3.31, P 2.68, L 2.03, A 3.24, S 2.26, H 2.01, I 1.84, E 2.02, T 2.07, V 2.52, Q 1.98, K 1.88, D 1.98, W 1.83, Y 2.44, G 2.29, N 1.9, M 1.53
Y16: C 2.69, L 2.28, I 1.87, G 2.75, E 3.28, F 1.74, D 2.91, P 2.56, W 2.68, V 2.91, H 2.65, M 2.02, K 2.05, Q 2.46, N 3.56, A 3.71, S 2.92
C17: M 2.21, L 1.58, P 2.1, N 1.51, A 1.44, D 1.99, H 2.3, K 2.42, T 1.65, I 2.46, E 2.39, S 2.13, G 2.81, Y 1.65, Q 1.71, F 2.98, V 3.78
E20: V 1.77, L 2.06, H 1.78, T 2.33, Q 2.12, N 2.13, R 2.91, M 1.4, C 2.41, S 2.77, I 1.5, A 1.84, K 2.07, P 1.92, G 2.21, F 2.37, D 2.26, Y 2.61
